According to US20220396627A1 (VERSEAU THERAPEUTICS, published 2022):
Numbering of substitutions follows the chain as printed.

B1: 9C15 (antibody, V domains shown)
VH: QVQLQQPGAELVKPGASVKMSCKASGYTFTSYWITWLNQRPGQGLEWIGDIYPGSGGTNYNERFKSKATLTVDTSSSTAYMQLSSLTSEDSAVYYCARSGGWAMDYWGQGTSVTVSS
VL: DIQMTQTTSSLSASLGDRVTISCRASQDISNYLNWYQQKPDGTVKLLIYYKSGLHSGVPSRFSGSGSGTDYSLTISNLEQEDIATYFCQQGNTLPFTFGGGTKLEIK
B2: 12G23 (antibody, V domains shown)
VH: EVQLQQSGPELVRPGASVKMSCKASGYTFTDYNMHWVKQSHGKSLEWIGYINPNNGGTSYNQKFKGKATLTVNKSSSTAYMELRSLTSDDSAVYYCAREGYGNYPFYWGQGTTLTVSS
VL: DIVLTQSPASLAVSLGQRVTISCRGSESVEYYGTSLMQWYQQKPGQPPKLLIYAASNVESGVPARFSGSGSGTDFSLNIHPVEEDDIAMYFCQQDRKVPYTFGGGTKLEIK
B3: 13O18 (antibody, V domains shown)
VH: B2 VH with S59T, K63N, D89E
VL: B2 VL with G25A, Y90F
B4: 3L02 (antibody, V domains shown)
VH: DVQLQESGPGMVKPSQSLSLTCTVTGYSITSGYDWHWIRHFPGNKLEWMGYISYSAGTNYNPSLKSRISITHDTSKNHFFLKLNSVTTEDTATYYCAREGLTAYWYFDVWGTGTTVTVSS
VL: DIVMTQSQKFMSTSVGDRVSVTCKASQTVGTNVAWYQQKPGQSPKPLIYSASYRYSGVPDRFTGSGSGTDFTLTISNVQSEDLAEYFCQQYDSFPLTFGSGTKLEIK
B5: 9D21 (antibody, V domains shown)
VH: QVQLKESGPGLVAPSQSLSITCTVSGFSLTRYGVSWVRQPPGKGLEWLGVIWGDGSTNYHSALISRLSISKDNSKSQVFLKLNSLQTDDTATYYCARPYYGFFDYWGQGTTLTVSS
VL: SIVMTQTPKFLLVSAGDRVTITCKASQSVSNAVAWYQQKPGQSPKMLIYYASNRYTGVPDRFTGSGYGTDFTFTISTVQAEDLAVYFCQQDYSSPYTFGGGTKLEIK
B6: 12P18 (antibody, V domains shown)
VH: QVQLQQSGAELVRPGASVTLSCKASGYTFTDYEMHWVKQTPVHGLEWIGAIDPEAGGTAYNRKFKGKAILTADKSSSTAYMELRSLTSEDSAVYYCTNLGRDYWGQGTTLTVSS
VL: DIVMSQSPSSLAVSVGEKVTMSCKSSQSLLYSSTQKNYLAWYQQKPGQSPKRLIYWASTRESGVPDRFTGSGSGTDFTLTISSVKAEDLAVYYCQQYYSYWTFGGGTKLEIK
B7: 12L19 (antibody, V domains shown)
VH: QVTLKESGPGILQPSQTLSLTCSFSGFSLNTFGMAVGWIRQPSGKGLEWLAHIWWDDSYYFNPALRSRLTISKDTSKNQVFLTIANVDTADTATYYCTRIPDDYDDYAMDYWGQGTSVTVSS
VL: DVVMTQTPLSLPVSLGDQASISCRSSQSLVHSNGNTYLHWYLQKPGQSPKLLVYKVSNRFSGVPDRFSGSGSGTDFTLKISRVEAEDLGVYFCSQNTHIPYTFGGGTKLEIK

Tests used:
[1] = target: T1, Human Siglec-9-Fc (recombinant human Siglec-9 extracellular domain Q18-G348 fused to human IgG1 Fc) (human); experiment: BLI binning, hSiglec-9-Fc on AHC sensor; competitor bound first (row): 13J19
Description: (§1) Epitopic diversity of functional antibodies was further assessed by antibody cross-blocking experiments, performed on a ForteBio Octet Red384 system. All samples were prepared in black 384-well flat bottom plates from (Greiner, Cat. #781209) with a working volume of 120 uL and diluted in kinetics buffer (1×DPBS containing 0.1% bovine serum albumin, 0.05% sodium azide, and 0.02% Tween®20). Anti-SIGLEC-9 antibodies and human Siglec-9-Fc protein were diluted in kinetics buffer to a final concentration of 10 ug/mL. Anti-human IgG Fc capture (AHC) biosensors (ForteBio, Cat. #18-5060) were rehydrated prior to the assay in kinetics buffer for 10 minutes then equilibrated in kinetics buffer for 60 seconds. Recombinant human Siglec-9-Fc was then immobilized for 120 seconds followed by a 30 second baseline wash in fresh kinetics buffer, 120 second association of a first antibody (antibody “a”), 30 second wash, and then 120 second association of a competitor antibody (antibody “b”). All assay steps occurred at 30° C. with an acquisition rate of 5.0 Hz.
(§2) Binning results were calculated using ForteBio Data Analysis HT software. Antibody “a” and antibody “b” steps were defined, and the maximum binding calculation was averaged at the last 10% of the step duration. Once the matrix was generated the self-self interaction was subtracted and hierarchical clustering was set with a similarity metric of Pearson and Lingang Criteria by Mean and the maximum binding nm shift is reported in Table 7 below.

[2] = target: T1, Human Siglec-9-Fc (recombinant human …); experiment: BLI binning, hSiglec-9-Fc on AHC sensor; competitor bound first (row): 13O18
Description: as §1, §2

[3] = target: T1, Human Siglec-9-Fc (recombinant human …); experiment: BLI binning, hSiglec-9-Fc on AHC sensor; competitor bound first (row): 12P18
Description: as §1, §2

[4] = target: T1, Human Siglec-9-Fc (recombinant human …); experiment: BLI binning, hSiglec-9-Fc on AHC sensor; competitor bound first (row): 13H10 (printed 13H110)
Description: as §1, §2

[5] = target: T1, Human Siglec-9-Fc (recombinant human …); experiment: BLI binning, hSiglec-9-Fc on AHC sensor; competitor bound first (row): 3L02
Description: as §1, §2

[6] = target: T1, Human Siglec-9-Fc (recombinant human …); experiment: BLI binning, hSiglec-9-Fc on AHC sensor; competitor bound first (row): 2F15
Description: as §1, §2

[7] = target: T1, Human Siglec-9-Fc (recombinant human …); experiment: BLI binning, hSiglec-9-Fc on AHC sensor; competitor bound first (row): 9D21
Description: as §1, §2

[8] = target: T1, Human Siglec-9-Fc (recombinant human …); experiment: BLI binning, hSiglec-9-Fc on AHC sensor; competitor bound first (row): 12L19
Description: as §1, §2

[9] = target: T1, Human Siglec-9-Fc (recombinant human …); experiment: BLI binning, hSiglec-9-Fc on AHC sensor; competitor bound first (row): 12G23
Description: as §1, §2

[10] = target: T1, Human Siglec-9-Fc (recombinant human …); experiment: BLI binning, hSiglec-9-Fc on AHC sensor; competitor bound first (row): 9C15
Description: as §1, §2

[11] = target: T2, Human SIGLEC7; experiment: ELISA: plate coated with 1 ug/mL human Siglec-7-Fc, antibody at 100 nM, HRP anti-mouse Fc secondary, RLU
T2 construct: also called human Siglec-7-Fc
Description: (§3) ELISA plates (384-well) were coated with 1 ug/mL indicated SIGLEC protein at room temperature. The plates were washed with PBS with 0.1% Tween®20, pH 7.4 and blocked with TBS containing 3% BSA. The plates were washed and incubated with anti-SIGLEC9 antibody diluted to 100 nM. Plates were washed and incubated with HRP-coupled anti-mouse Fc secondary antibody. Plates underwent a final wash and were incubated with HRP substrate. Readout was performed using a POLARstar Omega Microplate Reader (BMG LAPTECH).

[12] = target: T3, Cyno SIGLEC9; experiment: ELISA: plate coated with 1 ug/mL cyno Siglec-9-Fc, antibody at 100 nM, HRP anti-mouse Fc secondary, RLU
T3 construct: also called cyno Siglec-9-Fc; Cynomolgus Monkey SIGLEC9-Fc
Description: as §3

T2 sequence (Fc fusion chain, as listed by the source): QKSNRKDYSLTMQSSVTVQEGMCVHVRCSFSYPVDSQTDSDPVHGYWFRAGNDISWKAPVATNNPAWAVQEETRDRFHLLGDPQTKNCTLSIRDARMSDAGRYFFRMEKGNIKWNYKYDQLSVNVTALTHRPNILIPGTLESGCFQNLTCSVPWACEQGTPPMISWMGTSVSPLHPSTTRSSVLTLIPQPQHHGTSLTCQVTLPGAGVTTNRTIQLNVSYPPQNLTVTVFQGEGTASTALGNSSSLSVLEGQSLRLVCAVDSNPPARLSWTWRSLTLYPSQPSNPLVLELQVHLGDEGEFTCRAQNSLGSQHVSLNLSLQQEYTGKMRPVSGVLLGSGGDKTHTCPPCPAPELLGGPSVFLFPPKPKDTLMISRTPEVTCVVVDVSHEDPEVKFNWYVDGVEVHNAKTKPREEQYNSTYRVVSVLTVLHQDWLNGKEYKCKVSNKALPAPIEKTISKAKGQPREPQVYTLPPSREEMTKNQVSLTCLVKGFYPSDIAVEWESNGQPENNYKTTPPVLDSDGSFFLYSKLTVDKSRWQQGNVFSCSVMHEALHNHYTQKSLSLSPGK
T1 sequence (chain, as listed by the source limits assumed): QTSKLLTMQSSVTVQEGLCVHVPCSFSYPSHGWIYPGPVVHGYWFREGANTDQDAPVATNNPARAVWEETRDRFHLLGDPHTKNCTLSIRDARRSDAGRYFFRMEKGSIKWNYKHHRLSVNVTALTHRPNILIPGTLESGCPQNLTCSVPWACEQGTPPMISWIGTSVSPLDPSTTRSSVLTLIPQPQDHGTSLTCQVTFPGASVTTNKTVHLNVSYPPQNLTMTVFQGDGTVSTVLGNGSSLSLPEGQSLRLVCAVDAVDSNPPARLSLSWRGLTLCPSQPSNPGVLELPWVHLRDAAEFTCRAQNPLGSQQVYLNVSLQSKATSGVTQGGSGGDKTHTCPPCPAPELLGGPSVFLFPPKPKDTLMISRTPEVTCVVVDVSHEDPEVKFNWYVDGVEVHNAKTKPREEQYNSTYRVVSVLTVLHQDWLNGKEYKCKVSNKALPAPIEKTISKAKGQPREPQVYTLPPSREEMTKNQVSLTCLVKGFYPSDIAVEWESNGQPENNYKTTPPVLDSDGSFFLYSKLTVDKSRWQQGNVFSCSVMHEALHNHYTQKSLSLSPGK
T3 sequence (Fc fusion chain, as listed by the source): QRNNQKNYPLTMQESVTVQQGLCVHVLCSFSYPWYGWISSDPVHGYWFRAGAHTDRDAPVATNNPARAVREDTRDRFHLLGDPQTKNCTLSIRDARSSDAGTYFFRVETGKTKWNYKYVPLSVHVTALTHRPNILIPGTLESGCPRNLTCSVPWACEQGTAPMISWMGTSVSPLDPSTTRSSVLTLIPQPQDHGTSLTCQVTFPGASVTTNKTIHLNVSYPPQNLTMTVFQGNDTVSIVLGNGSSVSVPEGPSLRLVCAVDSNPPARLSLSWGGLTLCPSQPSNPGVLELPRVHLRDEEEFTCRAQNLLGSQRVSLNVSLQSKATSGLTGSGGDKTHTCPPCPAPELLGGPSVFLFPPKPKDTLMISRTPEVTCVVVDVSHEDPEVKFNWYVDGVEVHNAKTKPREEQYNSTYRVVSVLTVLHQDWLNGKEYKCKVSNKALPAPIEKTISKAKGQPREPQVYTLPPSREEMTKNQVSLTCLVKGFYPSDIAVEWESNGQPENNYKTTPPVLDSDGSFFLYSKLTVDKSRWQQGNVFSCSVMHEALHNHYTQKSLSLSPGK

Row | Binder | maximum binding nm shift [1] [nm] | maximum binding nm shift [2] [nm] | maximum binding nm shift [3] [nm] | maximum binding nm shift [4] [nm] | maximum binding nm shift [5] [nm] | maximum binding nm shift [6] [nm] | maximum binding nm shift [7] [nm] | maximum binding nm shift [8] [nm] | maximum binding nm shift [9] [nm] | maximum binding nm shift [10] [nm] | binding result [11] | binding result [12]
1 | B1 | 0.282 | 0.392 | 0.003 | 0.336 | 0.472 | 0.399 | 0.395 | 0.392 | 0.352 |  |  | 
2 | B2 | 0.139 | 0.011 | 0.231 | 0.242 | 0.277 | 0.001 | 0.162 | 0.263 |  | 0.233 |  | 
3 | B3 | 0.135 |  | 0.228 | 0.224 | 0.271 | 0.003 | 0.163 | 0.251 | -0.016 | 0.232 |  | 
4 | B4 |  |  |  |  |  |  |  |  |  |  | no binding (tested: 100 nM) | 
5 | B5 | -0.022 | 0.495 | 0.658 | 0.686 | 0.745 | 0.619 |  | 0.73 | 0.524 | 0.561 | binds | binds
6 | B6 | 0.324 | 0.358 |  | 0.336 | 0.463 | 0.352 | 0.349 | 0.518 | 0.439 | 0.03 | no binding (tested: 100 nM) | no binding (tested: 100 nM)
7 | B7 | 0.175 | 0.202 | 0.379 | -0.02 | 0.09 | 0.198 | 0.263 |  | 0.185 | 0.231 | no binding (tested: 100 nM) | no binding (tested: 100 nM)
